The values below come from patent publication US10563220B2, “Compositions and methods for efficient targeting of transgenes” (priority 2015, dated 2020).

Assay [1] relates to knockout E. coli strain. It is filed as cell-based. Particulars: LB medium, acifluorfen 1 mM, flumioxazin 0.5 mM, lactofen 0.5 mM, fomesafen 1 mM, S-3100 100 μM.
Assay [2] deals with R0 transgenic maize plants. Kind of assay: CTP-PPO herbicide tolerance evaluation in R0 transgenic maize (S-3100). It is filed as in vivo. The procedure:
R0 plants each containing a unique transformation event were sprayed with 40 g ai/ha or 80 g ai/ha of S-3100 at approximately the V5 growth stage and injury ratings were taken 4-7 days after treatment. The number of plants with ≤10% injury (highly tolerant) or ≤20% injury (tolerant) of the total number of sprayed plants was recorded. Plants that were determined to be single-copy events and that passed spray at ≤20% injury were advanced to selfing and outcrossing.

Assay [3] relates to R1 transgenic soybean plants. Kind of assay: R1 soybean greenhouse dicamba injury. Particulars: dicamba 1120 g ai/ha at V4; rated 10 days after treatment; DMO SEQ ID NO:18.
Source text: Transgenic soybean plants were generated with two DNA constructs that were identical except for the APG6 CTP. The first DNA construct had APG6 (SEQ ID NO:1) operably linked to DMO (SEQ ID NO:18). The second DNA construct had the optimized APG6 (SEQ ID NO:2) operably linked to DMO (SEQ ID NO:18). Each DNA construct was used to transform A3555 soybean by Agrobacterium mediated transformation methods. Following transformation, R0 transgenic plants containing a single copy of the transgene were identified by PCR assay. Single-copy R0 plants were grown in greenhouse, and R1 seed was harvested. Ten R1 seeds per event for 4 events generated using each of the two DNA constructs and AG3555 seed was planted for evaluation of crop tolerance to post-emergence dicamba treatment under standard greenhouse growth conditions. Dicamba (Clarity) was applied at the V4 stage at 1120 g ai/ha. Crop injury ratings were taken 10 days after the treatment.
Assay [4] relates to transgenic Brassica napus plants. Briefly: Dicamba tolerance in R0 Brassica napus, greenhouse. Particulars: R0 plants with one copy with vector backbone or two copies, tolerant = injury 20% or less, 21 days.
Procedure: Brassica napus variety 65037 Restorer line was used for Agrobacterium-mediated transformation and R0 plants were grown in the greenhouse.
Dicamba tolerance was assessed using R0 plants with one copy of transgene with vector backbone or two copies of transgene. Dicamba tolerance was designated as dicamba injury of 20% or less under greenhouse conditions.
Dicamba tolerance was assessed on R0 plants with a one copy of the transgene. Plants were sprayed in the greenhouse with dicamba (Clarity) at 1 lb ae/acre (2× rate), and dicamba tolerance was determined 14 to 21 days later.
Assay [5] deals with R1 transgenic cotton plants. Briefly: R1 cotton greenhouse dicamba injury. Particulars: dicamba 1120 g ai/ha at V4; rated 9 days after treatment; DMO SEQ ID NO:18.
Source text: Ten R1 seeds per event from 10 events for each construct and seed from DP393 cotton was planted to evaluate crop tolerance to post-emergence application of dicamba. Dicamba (Clarity) was applied at the V4 stage at 1120 g ai/ha. Crop injury percent ratings were taken 9 days after the treatment.
Assay [6] concerns transgenic single-copy R0 soybean plants. Kind of assay: S-3100 efficacy evaluation in R0 soybean. Particulars: PPO H_N90; 20 g ai/ha S-3100 at about V3; 14 days after treatment.
Source text: Transgenic single-copy R0 plants, each representing a unique event, were sprayed in the greenhouse with the herbicide treatment 20 g ai/ha S-3100 applied at approximately the V3 stage. Injury ratings were taken 14 days after treatment as the number that were deemed highly tolerant (≤10% injury) or tolerant (≤20% injury).
Setting [7] is: construct configuration 17, PPO H_N40, S-3100 80 g ai/ha.
Setting [8] is: construct configuration 17, PPO H_N90, S-3100 40 g ai/ha.
Where [9] appears, read: construct configuration 18, PPO H_N40, S-3100 80 g ai/ha.
Setting [10] is: construct configuration 19, PPO H_N40, S-3100 80 g ai/ha.

B1: WH_PPO: protoporphyrinogen oxidase from Amaranthus tuberculatus (waterhemp), SEQ ID NO:60 (protein, listed as Amaranthus tuberculatus)
chain: MGNISEREEPTSAKRVAVVGAGVSGLAAAYKLKSHGLSVTLFEADSRAGGKLKTVKKDGFIWDEGANTMTESEAEVSSLIDDLGLREKQQLPISQNKRYIARDGLPVLLPSNPAALLTSNILSAKSKLQIMLEPFLWRKHNATELSDEHVQESVGEFFERHFGKEFVDYVIDPFVAGTCGGDPQSLSMHHTFPEVWNIEKRFGSVFAGLIQSTLLSKKEKGGENASIKKPRVRGSFSFQGGMQTLVDTMCKQLGEDELKLQCEVLSLSYNQKGIPSLGNWSVSSMSNNTSEDQSYDAVVVTAPIRNVKEMKIMKFGNPFSLDFIPEVTYVPLSVMITAFKKDKVKRPLEGFGVLIPSKEQHNGLKTLGTLFSSMMFPDRAPSDMCLFTTFVGGSRNRKLANASTDELKQIVSSDLQQLLGTEDEPSFVNHLFWSNAFPLYGHNYDSVLRAIDKMEKDLPGFFYAGNHKGGLSVGKAMASGCKAAELVISYLDSHIYVKMDEKTA
Regarding B1, the “growth of knockout E. coli strain expressing the PPO in the presence of a PPO herbicide” value in assay [1] was “sensitive”.

B2: APG6: Arabidopsis thaliana albino and pale green (APG6) chloroplast transit peptide, SEQ ID NO:1, tested linked to DMO or PPO (protein, listed as Arabidopsis thalinana)
chain: MATATTTATAAFSGVVSVGTETRRIYSFSHLQPSAAFPAKPSSFKSLKLKQSARLTRRLDHRPFVVRC
Turning to B2, in assay [2] (setting [7]), the “≤10% injury (percent of plants)” value is “(37.5%)”, the “≤10% injury (plants of total sprayed)” value is recorded as 42/112, the “≤20% injury (percent of plants)” value was “(58%)” and the “≤20% injury (plants of total sprayed)” value is 65/112. In addition, in assay [2] (setting [8]), the “≤10% injury (percent of plants)” value was “(49.1%)”, the “≤10% injury (plants of total sprayed)” value is given as 55/112, the “≤20% injury (percent of plants)” value worked out at 56.3%) and the “≤20% injury (plants of total sprayed)” value is given as 63/112. Further, in assay [2] (setting [9]), the “≤10% injury (percent of plants)” value is “(40.2%)”, the “≤10% injury (plants of total sprayed)” value is listed as 45/112, the “≤20% injury (percent of plants)” value is on record as “(58.9%)” and the “≤20% injury (plants of total sprayed)” value is 66/112. Further, in assay [2] (setting [10]), the “≤10% injury (percent of plants)” value is recorded as “(21.4%)”, the “≤10% injury (plants of total sprayed)” value is 12/56, the “≤20% injury (percent of plants)” value is recorded as “(41.1%)” and the “≤20% injury (plants of total sprayed)” value is given as 23/56. Also, in assay [3], the “Dicamba Injury, V4 stage” value stood at 3.6%. For the same molecule, the “2X Tolerant events” value in assay [4] (dicamba 1 lb ae/acre) was 7/14. Also, the “4X Tolerant events” value in assay [4] (dicamba 2 lb ae/acre) is listed as 6/18. Further, the “dicamba % Injury, V4 stage” value in assay [5] amounted to 2.6%. Besides, in assay [6], the “≤10% injury (events of total, highly tolerant)” value was 3/14; the “≤10% injury (percent of unique events)” value was determined as 21.4%; the “≤20% injury (events of total, tolerant)” value is 8/14; the “≤20% injury (percent of unique events)” value was 57.1%.
